In patent US20260042834A1 (HBM ALPHA THERAPEUTICS, published 2026):
Where a chain is given by its changes, count along the chain named.

T1: corticotropin-releasing hormone (CRH) peptide (human and mouse (same sequence), not fully specified)
T1 peptide: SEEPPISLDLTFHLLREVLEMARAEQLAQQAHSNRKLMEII

B1: PR302341-30 (antibody, human IgG1, kappa, V domains shown)
VH: QVQLVQSGAEVKKPGASVKVSCKASGYTFTDYFMKWVRQAPGQGLEWMGVINPNNGDIFYNQKFKGRVTMTVDKSISTAYMELSRLRSDDTAVYYCARGTDRALFAYWGQGTLVTVSS
VL: DVVMTQSPLSLPVTLGQPASISCRSGQSIVHSEGNTYLEWYQQRPGQSPRLLIYKVSNRFSGVPDRFSGSGSGTDFTLKISRVEAEDLGVYYCFQGSHIPWTFGGGTKVEIKR
B2: PR302341-64 (antibody, human IgG1, kappa, V domains shown)
VH: B1 VH with G44R, G56A, M70I, V72R, K74T, I76A, R85S, D89E
VL: B1 VL with E33S
B3: PR302341-33 (antibody, human IgG1, kappa, V domains shown)
VH: B1 VH with G56A
VL: B1 VL with E33D, G34A
B4: PR302341-37 (antibody, human IgG1, kappa, V domains shown)
VH: B1 VH with N55S
VL: B1 VL with E33D, G34A
B5: PR302341-72 (antibody, human IgG1, kappa, V domains shown)
VH: B1 VH with G44R, M70I, V72R, K74T, I76A, R85S, D89E
VL: B1 VL with E33S
B6: PR302341-34 (antibody, human IgG1, kappa, V domains shown)
VH: B1 VH with N55Q
VL: B1 VL with E33D, G34A
B7: PR302341-70 (antibody, human IgG1, kappa, V domains shown)
VH: B1 VH with G44R, M70I, V72R, K74T, I76A, R85S, D89E
VL: B1 VL with E33D, G34A
B8: PR302341-71 (antibody, human IgG1, kappa, V domains shown)
VH: B1 VH with G44R, M70I, V72R, K74T, I76A, R85S, D89E
VL: B1 VL
B9: PR302341-40 (antibody, human IgG1, kappa, V domains shown)
VH: B1 VH with N55S
VL: B1 VL with E33S
B10: PR302341-38 (antibody, human IgG1, kappa, V domains shown)
VH: B1 VH with N55Q
VL: B1 VL with E33S
B11: PR302341-28 (antibody, human IgG1, kappa, V domains shown)
VH: B1 VH with N55Q
VL: B1 VL with E33D
B12: PR302341-66 (antibody, human IgG1, kappa, V domains shown)
VH: B1 VH with G44R, N55Q, M70I, V72R, K74T, I76A, R85S, D89E
VL: B1 VL with E33S
B13: PR302341-36 (antibody, human IgG1, kappa, V domains shown)
VH: B1 VH with N55S
VL: B1 VL
B14: PR302341-32 (antibody, human IgG1, kappa, V domains shown)
VH: B1 VH with N55Q
VL: B1 VL
B15: PR302341-65 (antibody, human IgG1, kappa, V domains shown)
VH: B1 VH with G44R, N55S, M70I, V72R, K74T, I76A, R85S, D89E
VL: B1 VL with E33S
B16: PR302341-39 (antibody, human IgG1, kappa, V domains shown)
VH: B1 VH with G56A
VL: B1 VL with E33S
B17: PR302341-42 (antibody, human IgG1, kappa, V domains shown)
VH: B1 VH
VL: B1 VL with E33S
B18: PR302341-35 (antibody, human IgG1, kappa, V domains shown)
VH: B1 VH with G56A
VL: B1 VL
B19: PR302341-29 (antibody, human IgG1, kappa, V domains shown)
VH: B1 VH with G56A
VL: B1 VL with E33D
B20: PR302341-31 (antibody, human IgG1, kappa, V domains shown)
VH: B1 VH
VL: B1 VL with E33D, G34A
B21: PR302341-41 (antibody, human IgG1, kappa, V domains shown)
VH: B1 VH with N55S
VL: B1 VL with E33D
B22: PR302341-13 (antibody, human IgG1, kappa, V domains shown)
VH: B1 VH with V72R, K74T, I76T, A79V, R85S, D89E
VL: DVLMTQTPLSLPVSLGDQASISCRSGQSIVHSDGNTYLEWYLQRPGQSPRLLIYKVSNRFSGVPDRFSGSGSGTDFTLKISRVGAEDLGIYYCFQGSHIPWTFGGGTKLEVKR
B23: PR302341-14 (antibody, human IgG1, kappa, V domains shown)
VH: B1 VH with I76T, R85S, D89E
VL: B22 VL
B24: PR302341-18 (antibody, human IgG1, kappa, V domains shown)
VH: B1 VH
VL: B22 VL
B25: PR302341-15 (antibody, human IgG1, kappa, V domains shown)
VH: B1 VH with G44R, M70I, V72R, K74T, I76A, R85S, D89E
VL: B22 VL
B26: PR302341-17 (antibody, human IgG1, kappa, V domains shown)
VH: B1 VH with V72R, K74T
VL: B22 VL
B27: PR302341-16 (antibody, human IgG1, kappa, V domains shown)
VH: B1 VH with G44R, M70I, I76A, R85S, D89E
VL: B22 VL
B28: PR302341-1 (antibody, human IgG1, kappa, V domains shown)
VH: EVQLQQSGPELVKPGASVKMSCKASGYTFTDYFMKWVKQSHGESLEWIGVINPNNGDIFYNQKFKGKATLTVDKSSSTAFMQLNSLTSEDSAVYSCARGTDRALFAYWGQGTLVAVSA
VL: B1 VL with E33D, Y41F, L51R, L88V
B29: PR302341-9 (antibody, human IgG1, kappa, V domains shown)
VH: B1 VH with I76T, R85S, D89E
VL: B1 VL with V2I, S7T, L11S, E33D, Y41L, S48P, S72A, L88V
B30: PR302341-5 (antibody, human IgG1, kappa, V domains shown)
VH: B28 VH
VL: B1 VL with V2I, S7T, P12S, L15P, E33D, Q42L, R44K, R50Q, L88V
B31: PR302341-21 (antibody, human IgG1, kappa, V domains shown)
VH: B1 VH with G44R, M70I, I76A, R85S, D89E
VL: B1 VL with E33D
B32: PR302341-19 (antibody, human IgG1, kappa, V domains shown)
VH: B1 VH with V72R, K74T, I76T, A79V, R85S, D89E
VL: B1 VL with E33D
B33: PR302341-8 (antibody, human IgG1, kappa, V domains shown)
VH: B1 VH with I76T, R85S, D89E
VL: B1 VL with E33D
B34: PR302341-11 (antibody, human IgG1, kappa, V domains shown)
VH: B1 VH with I76T, R85S, D89E
VL: B1 VL with V2I, S7T, P12S, L15P, E33D, Q42L, R44K, R50Q, L88V
B35: PR302341-12 (antibody, human IgG1, kappa, V domains shown)
VH: B1 VH with I76T, R85S, D89E
VL: B1 VL with S7T, P12S, L15P, E33D, Q42L, R44K, R50Q
B36: PR302341-6 (antibody, human IgG1, kappa, V domains shown)
VH: B28 VH
VL: B1 VL with S7T, P12S, L15P, E33D, Q42L, R44K, R50Q
B37: PR302341-7 (antibody, human IgG1, kappa, V domains shown)
VH: B1 VH with I76T, R85S, D89E
VL: B1 VL with E33D, Y41F, L51R, L88V
B38: PR302341-4 (antibody, human IgG1, kappa, V domains shown)
VH: B28 VH
VL: B1 VL with S7T, L11S, E33D, S48P, S72A
B39: PR302341-3 (antibody, human IgG1, kappa, V domains shown)
VH: B28 VH
VL: B1 VL with V2I, S7T, L11S, E33D, Y41L, S48P, S72A, L88V
B40: PR302341-2 (antibody, human IgG1, kappa, V domains shown)
VH: B28 VH
VL: B1 VL with E33D
B41: PR302341-22 (antibody, human IgG1, kappa, V domains shown)
VH: B1 VH with V72R, K74T
VL: B1 VL with E33D

Target: T1, corticotropin-releasing hormone (CRH) …
Experiment: cell-based or functional assay

Row | Binder | hCRHR1 Luciferase Reporter Assay IC50 [pM] | mCrhr1 Luciferase Reporter Assay IC50 [pM]
1 | B1 | 457 | –
2 | B2 | 1090 | –
3 | B3 | 821 | 1660
4 | B4 | 792 | 1290
5 | B5 | 1730 | –
6 | B6 | 616 | 2190
7 | B7 | 1600 | –
8 | B8 | 2010 | –
9 | B9 | 1820 | –
10 | B10 | 1780 | –
11 | B11 | 267 | 2430
12 | B12 | 4130 | –
13 | B13 | 1770 | –
14 | B14 | 1890 | –
15 | B15 | 3120 | –
16 | B16 | 1040 | –
17 | B17 | 1980 | –
18 | B18 | 1750 | –
19 | B19 | 427 | 1390
20 | B20 | 498 | –
21 | B21 | 471 | –

Target: T1, corticotropin-releasing hormone (CRH) …
Experiment: cell-based or functional assay
Remark: another data set of the same source

Row | Binder | hCRHR1 Luciferase Reporter Assay IC50 [pM] | mCrhr1 Luciferase Reporter Assay IC50 [pM]
22 | B22 | 124 | –
23 | B23 | 75 | –
24 | B24 | 169 | –
25 | B25 | 124 | –
26 | B26 | 104 | –
27 | B27 | 225 | –
28 | B28 | 397 | –
29 | B29 | 234 | –
30 | B30 | 730 | –
31 | B31 | 177 | 541
32 | B32 | 121 | 365
33 | B33 | 165 | 357
34 | B34 | 467 | –
35 | B35 | 250 | –
36 | B36 | 363 | –
37 | B37 | 230 | –
38 | B38 | 107 | –
39 | B39 | 128 | –
40 | B40 | 168 | –
41 | B41 | 243 | –
